According to paper PMC10269695, “HtpG Is a Metal-Dependent Chaperone Which Assists the DnaK/DnaJ/GrpE Chaperone System of Mycobacterium tuberculosis via Direct Association with DnaJ2” (Microbiology Spectrum, 2023):

Biological target: T1, M. tuberculosis HtpG (high-temperature protein G) (M. tuberculosis H37Rv, UniProt P9WMJ7 1-647)
T1 construct: also called mHtpG; Rv2299c; not shown: GST, N-terminal, cleaved
T1 sequence: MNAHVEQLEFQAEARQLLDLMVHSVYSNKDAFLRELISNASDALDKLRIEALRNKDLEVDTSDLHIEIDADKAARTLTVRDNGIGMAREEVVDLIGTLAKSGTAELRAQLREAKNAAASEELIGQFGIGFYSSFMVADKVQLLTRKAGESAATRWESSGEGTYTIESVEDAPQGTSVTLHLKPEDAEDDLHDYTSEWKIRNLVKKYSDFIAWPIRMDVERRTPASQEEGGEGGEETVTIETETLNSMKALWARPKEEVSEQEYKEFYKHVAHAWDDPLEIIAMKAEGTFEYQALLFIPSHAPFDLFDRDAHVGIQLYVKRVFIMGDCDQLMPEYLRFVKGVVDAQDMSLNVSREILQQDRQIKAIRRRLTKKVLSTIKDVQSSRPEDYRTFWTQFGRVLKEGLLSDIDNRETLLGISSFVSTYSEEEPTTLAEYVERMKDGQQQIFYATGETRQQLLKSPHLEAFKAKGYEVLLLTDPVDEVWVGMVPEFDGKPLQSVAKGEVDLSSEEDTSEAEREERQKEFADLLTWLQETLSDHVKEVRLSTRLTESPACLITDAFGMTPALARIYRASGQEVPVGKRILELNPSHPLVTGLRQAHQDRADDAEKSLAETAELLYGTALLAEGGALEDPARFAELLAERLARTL
Assay: BLI
Conditions: both partners purified

B1: M. tuberculosis DnaJ2 (natural protein)
chain: MARDYYGLLGVSKNASDADIKRAYRKLARELHPDVNPDEAAQAKFKEISVAYEVLSDPDKRRIVDLGGDPLESAAAGGNGFGGFGGLGDVFEAFFGGGFGGGAASRGPIGRVRPGSDSLLRMRLDLEECATGVTKQVTVDTAVLCDRCQGKGTNGDSVPIPCDTCGGRGEVQTVQRSLLGQMLTSRPCPTCRGVGVVIPDPCQQCMGDGRIRARREISVKIPAGVGDGMRVRLAAQGEVGPGGGPAGDLYVEVHEQAHDVFVREGDHLHCTVSVPMVDAALGVTVTVDAILDGLSEITIPPGTQPGSVITLRGRGMPHLRSNTRGDLHVHVEVVVPTRLDHQDIELLRELKGRRDREVAEVRSTHAAAGGLFSRLRETFTGR
notes: also called Rv2373c; not shown: GST, N-terminal, cleaved
- Kd: ~200 nM
